The target of this assay is Tat translocon (TatABC) in inverted membrane vesicles (E. coli) (UniProt P69428). The assay can be described thus: co-sedimentation.
Chain of Tat translocon (TatABC) in inverted membrane vesicles (E. coli) (P69428 whole entry, chain 1 of 3): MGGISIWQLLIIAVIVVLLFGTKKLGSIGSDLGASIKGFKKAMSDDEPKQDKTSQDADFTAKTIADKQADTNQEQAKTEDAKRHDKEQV
Chain of Tat translocon (TatABC) in inverted membrane vesicles (E. coli) (P69425 whole entry, chain 2 of 3, further chain): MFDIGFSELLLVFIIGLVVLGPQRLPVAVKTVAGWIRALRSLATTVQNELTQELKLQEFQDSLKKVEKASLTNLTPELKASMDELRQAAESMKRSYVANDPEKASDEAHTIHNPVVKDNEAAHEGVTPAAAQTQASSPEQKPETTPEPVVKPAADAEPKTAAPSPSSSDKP
Chain of Tat translocon (TatABC) in inverted membrane vesicles (E. coli) (P69423 whole entry, chain 3 of 3, further chain): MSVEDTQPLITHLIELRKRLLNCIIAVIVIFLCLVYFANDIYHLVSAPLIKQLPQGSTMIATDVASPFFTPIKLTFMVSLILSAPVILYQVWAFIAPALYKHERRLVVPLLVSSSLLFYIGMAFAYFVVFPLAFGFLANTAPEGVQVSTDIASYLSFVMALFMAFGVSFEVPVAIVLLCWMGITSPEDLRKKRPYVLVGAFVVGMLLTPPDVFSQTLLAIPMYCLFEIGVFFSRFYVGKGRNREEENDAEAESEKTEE

Consider “pre-SufI (from UniProt P26648 28-470) (natural protein)”, for which the percent decrease of precursor bound to the Tat machinery from 0.05 to 1 M KCl came out at 35% and the percent inhibition of translocon binding by 1 M urea came to 75%.
With spTorA-GFP, the amount bound to the Tat machinery (8.3 pmol added) worked out at 0.5 pmol and the amount of precursor added at which translocon binding saturates amounted to 4 pmol.
